Our source for the Kd values is PMC4809050 (2016).

Holding throughout (assay): NMR chemical shift titration
The target in experiment [1] is T1, CCR7 N-terminus peptide 2-30 (Homo sapiens, UniProt P32248).
T1 chain: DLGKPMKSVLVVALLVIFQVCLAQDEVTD

In experiment [2] the target is PSGL-1 N-terminus peptide 1-15 (Homo sapiens, UniProt Q14242, N-terminal pyroglutamate).
In experiment [3] the target is T2, CCR7 N-terminus peptide 1-30 (Homo sapiens, UniProt P32248).
T2 chain: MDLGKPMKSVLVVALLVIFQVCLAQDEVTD

Experiment [4] addresses T3, PSGL-1 N-terminus peptide 2-15 (Homo sapiens, UniProt Q14242).
T3 chain: PLQLLLLLILLGPG

B1: CCL19 (protein)
chain: GTNDAEDCCLSVTQKPIPGYIVRNFHYLLIKDGCRVPAVVFTTLRGRQLCAPPDQPWVERIIQRLQRTSAKMKRRSS
Regarding B1, the Kd was 12 µM in experiment [1], 20 µM in experiment [2], 52 µM in experiment [3] and 18 µM in experiment [4].

A word on the Kd: it is the concentration at which binding is half-saturated.
